One series deals with T1, Dt2-6xHis (soybean; cultivar of the cloned CDS not …, UniProt I1N4Q7 1-253).
T1 sequence: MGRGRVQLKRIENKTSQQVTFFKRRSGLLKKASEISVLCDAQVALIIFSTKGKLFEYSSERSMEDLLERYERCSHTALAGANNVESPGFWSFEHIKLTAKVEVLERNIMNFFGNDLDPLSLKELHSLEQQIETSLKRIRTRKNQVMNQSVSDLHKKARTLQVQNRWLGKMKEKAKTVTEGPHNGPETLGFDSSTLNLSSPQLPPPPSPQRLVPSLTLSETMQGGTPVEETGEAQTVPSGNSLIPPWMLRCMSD
In words: EMSA; DIG Gel Shift Kit (Roche 3353591910), manufacturer's instructions; buffer, salt, pH and temperature not stated. The settings on record: protein: recombinant; tags: 6xHis (pET-DEST42); chain copies: 2; label: digoxigenin; blunt. A general note: Mobility shift assays separate free from complexed probe on a gel.

A further series deals with GmSOC1-6xHis (soybean; cultivar of the cloned CDS not …, UniProt A0A2K7FY55 1-209). The series is described as above. The settings on record: protein: recombinant; tags: 6xHis (pET-DEST42); chain copies: 2; label: digoxigenin; blunt.
Sequence of GmSOC1-6xHis (A0A2K7FY55 entry or part of it): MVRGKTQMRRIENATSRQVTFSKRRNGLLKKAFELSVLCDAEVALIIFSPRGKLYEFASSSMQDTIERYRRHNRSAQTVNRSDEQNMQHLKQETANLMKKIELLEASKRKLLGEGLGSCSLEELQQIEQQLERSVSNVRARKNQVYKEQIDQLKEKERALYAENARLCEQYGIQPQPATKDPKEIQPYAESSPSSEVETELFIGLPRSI

B1: Dt1-CArG5 (dsDNA)
DNA 1: TCTTTTACCAATATTGGAACTTGG
DNA 2: CCAAGTTCCAATATTGGTAAAAGA
For B1, the binding result in the series with Dt2-6xHis and in the series with GmSOC1-6xHis was “binds” throughout.

B2: Dt1-CArG1 (dsDNA)
DNA 1: AATATCCAAATTTAGAAATATG
DNA 2: CATATTTCTAAATTTGGATATT
With B2, in the series with Dt2-6xHis, the binding result is reported as “binds”.

B3: Dt1-CArG2 (dsDNA)
DNA 1: CTTATACCAAAATAAGCAACTAAC
DNA 2: GTTAGTTGCTTATTTTGGTATAAG
B3: the binding result with Dt2-6xHis is recorded as “binds”.

The values are drawn from article PMC4726468, “Innovation of a Regulatory Mechanism Modulating Semi-determinate Stem Growth through Artificial Selection in Soybean”.
